Changes are numbered by the printed parent chain.

Experiment [1] concerns the target human TNFR1 (R&D systems, cat no. 636-R1/CF) (human) (UniProt P19438). Nature of the experiment: BIAcore sequential injection on biotinylated human TNFR1; competitor DOM1h-574-16. Background: SPR reads the build-up and loss of mass on a sensor chip optically.
The target of experiment [2] is T1, human TNFR1 on MRC-5 cells (human, UniProt P19438 30-455).
T1 sequence (looked up): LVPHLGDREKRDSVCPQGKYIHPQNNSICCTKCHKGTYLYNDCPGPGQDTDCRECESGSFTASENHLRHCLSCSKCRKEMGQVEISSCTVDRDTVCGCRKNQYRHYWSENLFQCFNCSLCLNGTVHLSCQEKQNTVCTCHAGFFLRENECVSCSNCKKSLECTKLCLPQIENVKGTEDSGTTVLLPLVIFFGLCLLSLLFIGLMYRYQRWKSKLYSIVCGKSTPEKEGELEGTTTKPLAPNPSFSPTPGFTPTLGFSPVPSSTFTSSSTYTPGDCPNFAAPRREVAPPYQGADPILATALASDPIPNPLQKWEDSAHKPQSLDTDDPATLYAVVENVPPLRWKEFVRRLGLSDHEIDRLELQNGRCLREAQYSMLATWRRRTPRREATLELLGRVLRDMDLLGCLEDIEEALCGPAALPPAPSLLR
Nature of the experiment: cell-based or functional assay.

Experiment [3] deals with mouse TNFR1 on L929 cells (mouse) (UniProt P25118). Nature of the experiment: cell-based or functional assay.
mouse TNFR1 on L929 cells (mouse), sequence (P25118 30-454): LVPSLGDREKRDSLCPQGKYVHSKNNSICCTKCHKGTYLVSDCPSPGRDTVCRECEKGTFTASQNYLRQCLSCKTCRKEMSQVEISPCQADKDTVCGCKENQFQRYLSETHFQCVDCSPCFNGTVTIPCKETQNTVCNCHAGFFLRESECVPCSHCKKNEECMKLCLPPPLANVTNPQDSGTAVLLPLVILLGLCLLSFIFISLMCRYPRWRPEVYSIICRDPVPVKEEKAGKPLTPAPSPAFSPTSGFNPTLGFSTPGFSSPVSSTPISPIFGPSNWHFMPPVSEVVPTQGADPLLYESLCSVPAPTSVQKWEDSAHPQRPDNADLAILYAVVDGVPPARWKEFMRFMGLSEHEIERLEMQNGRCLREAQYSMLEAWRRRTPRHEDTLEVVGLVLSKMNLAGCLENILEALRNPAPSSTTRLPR
Experiment [4] concerns the target T2, human TNFR1 (R&D systems, cat no. 636-R1/CF) (human, UniProt P19438 30-211, limits assumed, biotinylated with EZ-Link NHS-LC-LC-biotin where coated on streptavidin chips; amine-coupled in the Table 2 experiment).
T2 construct: bought soluble recombinant protein; also called hTNFR1; p55
T2 sequence (looked up): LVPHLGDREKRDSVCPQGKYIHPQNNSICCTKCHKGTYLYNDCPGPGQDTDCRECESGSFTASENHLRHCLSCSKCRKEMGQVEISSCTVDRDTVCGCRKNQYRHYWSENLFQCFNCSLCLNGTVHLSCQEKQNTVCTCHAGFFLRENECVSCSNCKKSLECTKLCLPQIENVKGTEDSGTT
Nature of the experiment: BIAcore screening of supernatants.

The target of experiment [5] is T1, human TNFR1 on MRC-5 cells. Nature of the experiment: cell-based or functional assay. The source holds these as a separate data set.
Experiment [6] addresses T1, human TNFR1 on MRC-5 cells. Nature of the experiment: cell-based or functional assay. This is another data set of the same source.

Molecule “mAb Clone 4.12 (Invitrogen, cat. no. Zymed 33-0100) (antibody)” gave a percent less binding after DOM1h-574-16 in experiment [1] of 20%.

B1: DMS0132 (bispecific antibody)
chain: EVQLLESGGGLVQPGGSLRLSCAASGFTFVKYSMGWVRQAPGKGLEWVSQISDTADRTYYAHSVKGRFTISRDNSKNTLYLQMNSLRAEDTAVYYCAIYTGRWVPFEYWGQGTLVTVSSASTDIQMTQSPSSLSASVGDRVTITCRASRPIGTTLSWYQQKPGKAPKLLILWNSRLQSGVPSRFSGSGSGTDFTLTISSLQPEDFATYYCAQAGTHPTTFGQGTKVEIKR
For B1, in experiment [2], the MRC5 ND50 came out at 1.04 nM. The molecule also displayed an L929 ND50 in experiment [3] of 6.8 nM.

B2: DMS0135 (bispecific antibody)
chain: B1 chain with V30F, A61S
In experiment [2], B2 yielded an MRC5 ND50 of 1.17 nM. For the same molecule, in experiment [3], the L929 ND50 is 5.9 nM.

B3: DMS0134 (bispecific antibody)
chain: B1 chain with V30F
Turning to B3, the MRC5 ND50 in experiment [2] is 0.96 nM. In addition, the L929 ND50 in experiment [3] was 6.52 nM.

B4: DMS0133 (bispecific antibody)
chain: B1 chain with V30F, V104A
As to B4, the MRC5 ND50 in experiment [2] worked out at 0.99 nM. The molecule also registered an L929 ND50 in experiment [3] of 4.2 nM.

B5: DOM1h-574-7 (other)
VH: EVQLLESGGGLVQPGGSLRLSCAASGFTFVKYSMGWVRQAPGKGLEWVSQISNTGGHTYYADSVKGRFTISRDNSKNTLYLQMNSLRAEDTAVYYCAIYTGRWEPFDYWGQGTLVTVSS
notes: anti-TNFR1 dAb (VH) from error-prone test maturation; expressed from pDOM5 (myc tag not included here)
As for B5, the binding result in experiment [4] is “binds”.

B6: DOM1h-574-19 (other)
VH: B5 VH with V30G, G44D, G56D
For the molecule B6, in experiment [5], the “MRC-5 EC50” value worked out at 140 nM.

B7: DMS0122 (bispecific antibody, V domains shown)
VH: B5 VH with N53D, G56D, H57R, T58R, A61D, E104A, D107E
For the molecule B7, the “MRC5 (ND50 in nM)” value in experiment [6] is 1.5 nM.

B8: DMS0114 (bispecific antibody, V domains shown)
VH: B5 VH with G55A, G56D, H57R, D62H, E104R, D107E
With B8, the “MRC5 (ND50 in nM)” value in experiment [6] is 3.7 nM.

B9: DMS0117 (bispecific antibody, V domains shown)
VH: B5 VH with N53D, G56D, H57R, T58R, A61D, E104K, D107E
For the molecule B9, the “MRC5 (ND50 in nM)” value in experiment [6] was 25.9 nM.

B10: DOM1h-574-10 (other)
VH: B5 VH with V30G, G44D
notes: as for B5
Regarding B10, in experiment [4], the binding result is listed as “binds”.

B11: DOM1h-574-17 (other)
VH: B5 VH with L45P, G56D
With B11, in experiment [5], the “MRC-5 EC50” value is 20 nM.

B12: DOM1h-574-18 (other)
VH: B5 VH with V30G, G44D, G56D, H57R
Turning to B12, the “MRC-5 EC50” value in experiment [5] turned out to be 17 nM.
